Source: the supplement of paper PMC7877785
± gives the uncertainty stated by the source.

Assay: self-splicing fitness, log relative to wild type (ln ratio); higher = more splicing; Tetrahymena group I intron in knt gene, E. coli kanamycin selection, DiMSum; sequences stand for … in CUCUCU…GGAGGGAAAAGUUAUCAGGCAUGCACCUGGUAGCUAGUCUUUAAACCAAUAGAUUGCAUCGGUUUAAAAGGCAAGACCGUCAAAUUGCGGGAAAGGGGUCAACAGCCGUUCAGUACCAAGUCUCAGGGGAAACUUUGAGAUGGCCUUGCAAAGGGUAUGGUAAUAAGCUGACGGACAUGGUCCUAACCACGCAGCCAAGUCCUAAGUCAACAGAUCUUCUGUUGAUAUGGAUGCAGUUCACAGACUAAAUGUCGGUCGGGGAAGAUGUAUUCUUCUCAUAAGAUAUAGUCGGACCUCUCCUUAAUGGGAGCUAGCGGAUGAAGUGAUGCAACACUGGAGCCGCUGGGAACUAAUUUGUAUGCGAAAGUAUAUUGAUUAGUUUUGGAGUACUCGUGGUCG
Procedure, shortened: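 Library with all eight P1ex-region intron nucleotides randomised, intron inside the knt kanamycin-resistance gene on pET-22b(+), in E. coli BL21(DE3). Cells grew overnight at 37°C or 30°C on LB agar with or without 25 μg/mL kanamycin (plus 100 μg/mL carbenicillin, 50 μM IPTG, 0.2% rhamnose), in six replicate transformations. Pooled colonies were amplicon-sequenced on Illumina HiSeq 2500. DiMSum fitness is the error-weighted combination of wild-type-normalised replicate fold changes, kanamycin versus none.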

| Sequence | self-splicing fitness (ln) (30 °C) | self-splicing fitness (ln) (37 °C) |
| --- | --- | --- |
| AAAUAGCAAUAUUACGUCAU | -2.45 ± 0.08 | -1.51 ± 0.11 |
| AAAUAGCAAUAUUACGUCCA | -0.829 ± 0.084 | -0.327 ± 0.1 |
| AAAUAGCAAUAUUACGUCGG | -2.54 ± 0.14 | -1.14 ± 0.13 |
| AAAUAGCAAUAUUACGUCGU | -2.69 ± 0.17 | -1.55 ± 0.16 |
| AAAUAGCAAUAUUACGUCUC | -2.14 ± 0.11 | -1.15 ± 0.14 |
| AAAUAGCAAUAUUACGUGAU | -2.26 ± 0.099 | -1.89 ± 0.11 |
| AAAUAGCAAUAUUACGUGGG | -3.39 ± 0.2 | -2.49 ± 0.2 |
| AAAUAGCAAUAUUACGUUAG | -4.15 ± 0.42 | -3.24 ± 0.3 |
| AAAUAGCAAUAUUACGUUCA | -0.751 ± 0.094 | 0.187 ± 0.12 |
| AAAUAGCAAUAUUACGUUCC | -2.08 ± 0.16 | -1.1 ± 0.19 |
| AACAAGCAAUAUUACGAAAU | -3.53 ± 0.13 | -1.4 ± 0.095 |
| AACAAGCAAUAUUACGAGUG | -0.911 ± 0.049 | -0.0361 ± 0.07 |
| AACAAGCAAUAUUACGAUGG | -3.11 ± 0.094 | -1.72 ± 0.079 |
| AACAAGCAAUAUUACGAUUA | -0.823 ± 0.066 | -0.696 ± 0.071 |
| AACAAGCAAUAUUACGAUUG | -4.48 ± 0.21 | -1.54 ± 0.13 |
| AACAAGCAAUAUUACGCAGU | -3.43 ± 0.19 | -1.93 ± 0.16 |
| AACAAGCAAUAUUACGCCAC | -3.71 ± 0.4 | -2.83 ± 0.47 |
| AACAAGCAAUAUUACGCCCC | -0.645 ± 0.24 | 0.323 ± 0.26 |
| AACAAGCAAUAUUACGCGUC | -3.84 ± 0.2 | -2.66 ± 0.15 |
| AACAAGCAAUAUUACGCUUG | -2.82 ± 0.12 | -2.28 ± 0.16 |
| AACAAGCAAUAUUACGGAGA | -3.58 ± 0.23 | -3.19 ± 0.24 |
| AACAAGCAAUAUUACGGCGA | -0.0322 ± 0.064 | -0.329 ± 0.071 |
| AACAAGCAAUAUUACGGCUA | -0.414 ± 0.067 | 0.274 ± 0.092 |
| AACAAGCAAUAUUACGGGCG | -0.896 ± 0.075 | -1.08 ± 0.089 |

| Sequence | self-splicing fitness (ln) (30 °C) | self-splicing fitness (ln) (37 °C) |
| --- | --- | --- |
| AACAAGCAAUAUUACGGGUA | -0.841 ± 0.063 | -0.307 ± 0.071 |
| AACAAGCAAUAUUACGUAAC | -3.29 ± 0.12 | -2.33 ± 0.17 |
| AACAAGCAAUAUUACGUAGG | -2.76 ± 0.086 | -1.57 ± 0.1 |
| AACAAGCAAUAUUACGUCCG | -1.26 ± 0.067 | -0.444 ± 0.085 |
| AACAAGCAAUAUUACGUGAC | -2.94 ± 0.095 | -2.34 ± 0.12 |
| AACCAGCAAUAUUACGAAAU | -1.08 ± 0.058 | -0.397 ± 0.074 |
| AACCAGCAAUAUUACGAAUC | -1.65 ± 0.094 | -0.882 ± 0.1 |
| AACCAGCAAUAUUACGACAU | -0.243 ± 0.01 | 0.152 ± 0.031 |
| AACCAGCAAUAUUACGACCA | -0.702 ± 0.082 | 0.122 ± 0.11 |
| AACCAGCAAUAUUACGACGA | -0.496 ± 0.076 | -0.38 ± 0.071 |
| AACCAGCAAUAUUACGAUCG | -0.866 ± 0.084 | -0.752 ± 0.099 |
| AACCAGCAAUAUUACGAUCU | -0.425 ± 0.052 | 0.391 ± 0.074 |
| AACCAGCAAUAUUACGAUGC | -1.49 ± 0.076 | -0.673 ± 0.082 |
| AACCAGCAAUAUUACGAUGG | -2.91 ± 0.11 | -2.76 ± 0.14 |
| AACCAGCAAUAUUACGCGAU | -3.69 ± 0.19 | -1.77 ± 0.15 |
| AACCAGCAAUAUUACGCGCU | -2.01 ± 0.13 | -0.894 ± 0.13 |
| AACCAGCAAUAUUACGCGGG | -4.5 ± 0.24 | -3.16 ± 0.24 |
| AACCAGCAAUAUUACGGCGG | -0.585 ± 0.059 | -0.164 ± 0.078 |
| AACCAGCAAUAUUACGGCUU | -0.621 ± 0.056 | 0.209 ± 0.082 |
| AACCAGCAAUAUUACGGUUC | -3.75 ± 0.14 | -2.43 ± 0.17 |
| AACCAGCAAUAUUACGUACA | -1.08 ± 0.08 | -0.429 ± 0.11 |
| AACCAGCAAUAUUACGUAGU | -1.99 ± 0.06 | -1.42 ± 0.071 |
| AACCAGCAAUAUUACGUAUU | -1.79 ± 0.072 | -0.754 ± 0.08 |
| AACCAGCAAUAUUACGUCCG | -1.56 ± 0.073 | -0.0163 ± 0.091 |

| Sequence | self-splicing fitness (ln) (30 °C) | self-splicing fitness (ln) (37 °C) |
| --- | --- | --- |
| AACCAGCAAUAUUACGUUAA | -1.83 ± 0.086 | -1.26 ± 0.085 |
| AACCAGCAAUAUUACGUUCG | -2.59 ± 0.15 | -1.63 ± 0.13 |
| AACCAGCAAUAUUACGUUUG | -2.83 ± 0.077 | -2.31 ± 0.1 |
| AACGAGCAAUAUUACGAAUA |  | -1.63 ± 0.34 |
| AACGAGCAAUAUUACGACGG | -4.27 ± 0.37 | -2.04 ± 0.23 |
| AACGAGCAAUAUUACGAUAG | -3.04 ± 0.22 | -2.49 ± 0.22 |
| AACGAGCAAUAUUACGAUGU | -2.35 ± 0.2 | -1.99 ± 0.17 |
| AACGAGCAAUAUUACGCACA | -2.86 ± 0.23 | -2.09 ± 0.21 |
| AACGAGCAAUAUUACGCGUU | -4.34 ± 0.2 | -2.42 ± 0.14 |
| AACGAGCAAUAUUACGCUCG | -2.55 ± 0.35 |  |
| AACGAGCAAUAUUACGCUGG | -3.72 ± 0.31 | -0.45 ± 0.16 |
| AACGAGCAAUAUUACGGAAC | -2.26 ± 0.23 |  |
| AACGAGCAAUAUUACGGAAU | -2.84 ± 0.24 | -1.81 ± 0.22 |
| AACGAGCAAUAUUACGGACC | -2.49 ± 0.15 | -1.55 ± 0.22 |
| AACGAGCAAUAUUACGGAGG | -2.79 ± 0.19 | -2.38 ± 0.27 |
| AACGAGCAAUAUUACGGAUG | -3.34 ± 0.31 |  |
| AACGAGCAAUAUUACGGCGA | -1.95 ± 0.23 | -0.978 ± 0.2 |
| AACGAGCAAUAUUACGGGAA | -2.18 ± 0.22 | -2.74 ± 0.27 |
| AACGAGCAAUAUUACGGGGG | -3.29 ± 0.26 | -3.01 ± 0.37 |
| AACGAGCAAUAUUACGGUGG | -3.68 ± 0.32 | -2.05 ± 0.34 |
| AACGAGCAAUAUUACGUACG | -4.19 ± 0.46 | -1.63 ± 0.35 |
| AACGAGCAAUAUUACGUCCU | -1.04 ± 0.079 | -0.143 ± 0.095 |
| AACGAGCAAUAUUACGUCGU | -2.5 ± 0.23 | -2.9 ± 0.31 |
| AACGAGCAAUAUUACGUGCA | -2.58 ± 0.13 | -2.01 ± 0.18 |

| Sequence | self-splicing fitness (ln) (30 °C) | self-splicing fitness (ln) (37 °C) |
| --- | --- | --- |
| AACGAGCAAUAUUACGUUAU | -3.69 ± 0.16 | -1.52 ± 0.11 |
| AACUAGCAAUAUUACGAAUG | -2.36 ± 0.11 | -1.69 ± 0.12 |
| AACUAGCAAUAUUACGAUCC | 0.0588 ± 0.16 | 0.358 ± 0.19 |
| AACUAGCAAUAUUACGAUUG | -2.97 ± 0.12 | -1.23 ± 0.12 |
| AACUAGCAAUAUUACGCAGC | -3.32 ± 0.25 | -2.98 ± 0.43 |
| AACUAGCAAUAUUACGCCAC |  | -1.79 ± 0.36 |
| AACUAGCAAUAUUACGCGUG | -1.53 ± 0.08 | -0.485 ± 0.09 |
| AACUAGCAAUAUUACGCGUU | -3.51 ± 0.19 | -2.48 ± 0.29 |
| AACUAGCAAUAUUACGCUUU | -2.44 ± 0.097 | -1.71 ± 0.12 |
| AACUAGCAAUAUUACGGAGG | -3.08 ± 0.2 | -1.99 ± 0.22 |
| AACUAGCAAUAUUACGGCUG | -1.02 ± 0.098 | -0.0943 ± 0.15 |
| AACUAGCAAUAUUACGGGAA | -1.5 ± 0.074 | -1.13 ± 0.084 |
| AACUAGCAAUAUUACGGGAC | -3.22 ± 0.3 | -1.08 ± 0.17 |
| AACUAGCAAUAUUACGGGCG | -0.139 ± 0.081 | -0.0101 ± 0.11 |
| AACUAGCAAUAUUACGGGGG | -2.73 ± 0.2 | -1.53 ± 0.22 |
| AACUAGCAAUAUUACGGGUA | -0.761 ± 0.072 | -0.0817 ± 0.07 |
| AACUAGCAAUAUUACGUGAG | -1.28 ± 0.075 | -1.03 ± 0.1 |
| AACUAGCAAUAUUACGUGCC | -1.39 ± 0.12 | -0.755 ± 0.13 |
| AACUAGCAAUAUUACGUGUC | -4.26 ± 0.19 | -1.25 ± 0.1 |
| AACUAGCAAUAUUACGUUCC | -2.63 ± 0.22 | -1.93 ± 0.24 |
| AACUAGCAAUAUUACGUUUU | -3.52 ± 0.097 | -1.32 ± 0.075 |
| AAGAAGCAAUAUUACGAAAA | -1.8 ± 0.17 | -1.57 ± 0.18 |
| AAGAAGCAAUAUUACGAAGC | -3.02 ± 0.18 | -2.43 ± 0.28 |
| AAGAAGCAAUAUUACGAUCA | -0.455 ± 0.08 | -0.229 ± 0.099 |
